Data as given in publication PMC9012491, “Engineering the Single Domain Antibodies Targeting Receptor Binding Motifs Within the Domain III of West Nile Virus Envelope Glycoprotein” (Frontiers in Microbiology, 2022).

Columns and labels:
[1] = biological target: T1, synthetic analog of the receptor binding motif DIII-1^G299–K307 (West Nile virus; residues agree with …, biotinylated C-terminal lysine); test: far-Western, overlay or dot blot; dot blot: purified sdAbs (1 μl) spotted on nitrocellulose, blocked with 5% BSA; biotinylated peptide 1 μg/ml in phosphate buffer pH 7.0, 1 h; streptavidin-HRP; settings: both partners purified
T1 construct: numbers count on: the E glycoprotein; rDIII is of strain goshawk (GenBank DQ116961.1); also called DIII-1^L299–K307 (so printed in the discussion); source: synthetic peptide (Caslo)
T1 chain: GTTYGVCSK

[2] = biological target: T2, synthetic analog of the receptor binding motif DIII-2^V371–R388 (West Nile virus; residues agree with …, biotinylated C-terminal lysine); test: as above; settings: both partners purified
T2 construct: numbers count on: the E glycoprotein; rDIII is of strain goshawk (GenBank DQ116961.1); source: synthetic peptide (Caslo)
T2 chain: VLIELEPPFGDSYIVVGR

| Binder | binding result [1] | binding result [2] |
| --- | --- | --- |
| sdAbA1 (VHH) VHH: QVQLLASGPGLVKPSQTLSLTCTVSGGAITSGYYGWSWIRQPPGKELEWMGVIASSGSTYYSPSLKSRTSISRDTSKSQFTLQLSSVTPEDTAVYYCARDAIQGPNFLYDYWGQGTLVTVS | binds |  |
| sdAbA10 (VHH, also called sdAbA9) VHH: QVQVLASGGGLVQPGGSLRLSCAASGFTFSSNAMSWVRQAPGKGLEWVSTINSGGSRTTYTDSVKGRFTISRDNAKNTLYLQMNSLKPDDTAVYYCAKARVDLNLHGWGTSYEYDYWGQGTLVTVS |  | binds |
| sdAbA6 (VHH) VHH: EVQVVASGGGLVQPGGSLSLSCAASGFTFSGYDMTWVRQAPGKGLEWVSSINSGGGNTNYADSVKGRFTISRDNAKNTLYLQMNSLKPEDTALYYCARRNDYGSLLAALDAWGQGTLVTVS | binds |  |
